Measured values: patent EP4772538A1 (Beijing Wisdomab Biotechnology Co., Ltd, dated 2026)

Assays:
[1] = target: T1, HLA-A02 complex of … (MHC-P1-His), disulfide trap single-chain trimer (human); test: SPR, Biacore T200; antibody captured by anti-human IgG (Fc), MHC-P1-His injected, 25°C, 1:1 model
T1 construct: also called recombinant protein MHC-P1

[2] = target: T2, HLA-A02 complex of alanine-scanning mutant peptide T9A of MAGE-A4230-239 on pulsed T2 cells (human); test: flow cytometry on peptide-pulsed T2 cells, N18D10-Fc at 10 nM, anti-human IgG-FITC
T2 construct: whole, on cells

[3] = target: T3, HLA-A02 complex of alanine-scanning mutant peptide E7A of MAGE-A4230-239 on pulsed T2 cells (human); test: as above
T3 construct: whole, on cells

[4] = target: T4, HLA-A02 complex of alanine-scanning mutant peptide Y3A of MAGE-A4230-239 on pulsed T2 cells (human); test: as above
T4 construct: whole, on cells

[5] = target: T5, HLA-A02 complex of alanine-scanning mutant peptide G5A of MAGE-A4230-239 on pulsed T2 cells (human); test: as above
T5 construct: whole, on cells

[6] = target: T6, HLA-A02 complex of alanine-scanning mutant peptide D4A of MAGE-A4230-239 on pulsed T2 cells (human); test: as above
T6 construct: whole, on cells

[7] = target: T7, HLA-A02 complex of alanine-scanning mutant peptide V2A of MAGE-A4230-239 on pulsed T2 cells (human); test: as above
T7 construct: whole, on cells

[8] = target: T8, HLA-A02 complex of alanine-scanning mutant peptide H8A of MAGE-A4230-239 on pulsed T2 cells (human); test: as above
T8 construct: whole, on cells

[9] = target: T9, HLA-A02 complex of alanine-scanning mutant peptide R6A of MAGE-A4230-239 on pulsed T2 cells (human); test: as above
T9 construct: whole, on cells

[10] = target: T10, HLA-A02 complex of alanine-scanning mutant peptide V10A of MAGE-A4230-239 on pulsed T2 cells (human); test: as above
T10 construct: whole, on cells

[11] = target: T11, HLA-A02/MAGE-A4 complex on the cell surface (MAGE-A4230-239 (…) presented by HLA-A02) (human); test: as above
T11 construct: whole, on cells; Used for peptide-pulsed T2 cells and also for the same complex on A375 cells (HLA-A02+/MAGE-A4+); Allele printed only as HLA-A02; also called antigen peptide-pulsed T2 cells

[12] = target: T1, HLA-A02 complex of … (MHC-P1-His), …; test: SPR, Biacore T200, method of Section 3.1; antibody captured, MHC-P1-His injected
[13] = target: T11, HLA-A02/MAGE-A4 complex on the cell …; test: cell-based or functional assay
[14] = target: T1, HLA-A02 complex of … (MHC-P1-His), …; test: SPR, Biacore T200, method of Section 3.1; affinity for MHC-P1
[15] = target: T11, HLA-A02/MAGE-A4 complex on the cell …; test: cell-based or functional assay; remark: listed apart in the source
[16] = target: T11, HLA-A02/MAGE-A4 complex on the cell …; test: cell-based or functional assay; remark: listed apart in the source
[17] = target: T11, HLA-A02/MAGE-A4 complex on the cell …; test: cell-based or functional assay; remark: listed apart in the source

B1: anti-HLA-A02/MAGE-A4 complex TCRm antibody N18D10-Fc (Fc fusion)
chain: EVQLVESGGGSVQTGETLRLSCTVSGFTFDDSDMGWYRQAPGNECELVSTITTDGSTYYADSVKGRFTISQDNAKTTAYLQMDSLKPEDTAVYYCAADLPILRPTPCGDSVLYNYWGQGTQVTVSS
notes: Camel VHH fused to the Fc region of human IgG1; not shown: Fc region of human IgG1
Kd [1]: 0.388 nM | koff [1]: 7.18e-05 s⁻¹ | kon [1]: 185000 M⁻¹ s⁻¹ | binding relative to the original peptide [2]: 33.6% | binding relative to the original peptide [3]: 27.4% | binding relative to the original peptide [4]: -0.12% | binding relative to the original peptide [5]: -1.02% | binding relative to the original peptide [6]: 18.4% | binding relative to the original peptide [7]: 41.1% | binding relative to the original peptide [8]: -0.13% | binding relative to the original peptide [9]: -0.56% | binding relative to the original peptide [10]: 0.35% | binding relative to the original peptide [11]: 100%

B2: humanized anti-HLA-A02/MAGE-A4 complex TCRm antibody N18D10-h16-Fc (Fc fusion)
chain: QVQLVESGGGLVKPGGSLRLSCAVSGFTFDDSDMGWYRQAPGNECELVSTITTDGSTYYADSVKGRFTISQDNAKTSAYLQMNSLRAEDTAVYYCAADLPILRPTPCGDSVLYNYWGQGTTVTVSS
notes: Humanized VHH fused to the Fc region of human IgG1; not shown: Fc region of human IgG1
Kd [12]: 0.467 nM | koff [12]: 7.61e-05 s⁻¹ | kon [12]: 163000 M⁻¹ s⁻¹

B3: anti-HLA-A02/MAGE-A4 complex and anti-CD3 control bispecific antibody 057G03 (bispecific antibody)
heavy 1: AQLVESGGGLVQPGGSLRLSCAASAYFSFKAMSWVRQAPGKGLEWVGSISPSGGSTYYNDNVLGRFTISRDNSKNTLYLQMNSLRAEDTAVYYCAKDVGFFDEWGQGTLVTVSSASTKGPSVFPLAPSSKSTSGGTAALGCLVEDYFPEPVTVSWNSGALTSGVHTFPAVLQSSGLYSLSSVVTVPSSSLGTQTYICNVNHKPSNTKVDEKVEPKSCDGGGGSGGGGSDIQMTQSPSSLSASVGDRVTITCRASQDIRNYLNWYQQKPGKAPKLLIYYTSRLESGVPSRFSGSGSGTDYTLTISSLQPEDFATYYCQQGNTLPWTFGQGTKVEIKSSASTKGPSVFPLAPSSKSTSGGTAALGCLVKDYFPEPVTVSWNSGALTSGVHTFPAVLQSSGLYSLSSVVTVPSSSLGTQTYICNVNHKPSNTKVDKRVERKSCVECPPCPAPEFEGGPSVFLFPPKPKDTLMISRTPEVTCVVVDVSHEDPEVKFNWYVDGVEVHNAKTKPREEQYNSTYRVVSVLTVLHQDWLNGKEYKCKVSNKALPASIEKTISKAKGQPREPQVYTLPPCREEMTKNQVSLWCLVKGFYPSDIAVEWESNGQPENNYKTTPPVLDSDGSFFLYSKLTVDKSRWQQGNVFSCSVMHEALHNHYTQKSLSLSPGK
heavy 2: AQLVESGGGLVQPGGSLRLSCAASAYFSFKAMSWVRQAPGKGLEWVGSISPSGGSTYYNDNVLGRFTISRDNSKNTLYLQMNSLRAEDTAVYYCAKDVGFFDEWGQGTLVTVSSASTKGPSVFPLAPSSKSTSGGTAALGCLVEDYFPEPVTVSWNSGALTSGVHTFPAVLQSSGLYSLSSVVTVPSSSLGTQTYICNVNHKPSNTKVDEKVERKSCVECPPCPAPEFEGGPSVFLFPPKPKDTLMISRTPEVTCVVVDVSQEDPEVQFNWYVDGVEVHNAKTKPREEQYNSTYRVVSVLTVLHQDWLNGKEYKCKVSNKALPASIEKTISKAKGQPREPQVCTLPPSQEEMTKNQVSLSCAVKGFYPSDIAVEWESNGQPENNYKTTPPVLDSDGSFFLVSKLTVDKSRWQEGNVFSCSVMHEALHNHYTQKSLSLSPGK
light: DIQMTQSPSSLSASVGDRVTITCRASQSISSYLAWYQQKPGKAPKLLIYDASIRDIGVPSRFSGSGSGTDFTLTISSLQPEDFATYYCQQYSSYPYTFGQGTKLEIKRTVAAPSVFIFPPSDRKLKSGTASVVCLLNNFYPREAKVQWKVDNALQSGNSQESVTEQDSKDSTYSLSSTLTLSKADYEKHKVYACEVTHQGLSSPVTKSFNRGEC
chain: EVQLVESGGGLVQPGGSLRLSCAASGYSFTGYTMNWVRQAPGKGLEWVALINPYKGVSTYNQKFKDRFTISVDKSKNTAYLQMNSLRAEDTAVYYCARSGYYGDSDWYFDVWGQGTLVTVSSASVAAPSVFIFPPSDEQLKSGTASVVCLLNNFYPREAKVQWKVDNALQSGNSQESVTEQDSKDSTYSLSSTLTLSKADYEKHKVYACEVTHQGLSSPVTKSFNRGEC
notes: also called 057D03 (variable regions)
EC50 of activation of Jurkat-Dual cells via HLA-A02+/MAGE-A4+ tumor cells A375 (QUANTI-Luc) [13]: 0.749 nM | Kd [14]: 33 nM | koff [14]: 0.0167 s⁻¹ | kon [14]: 507000 M⁻¹ s⁻¹ | EC50 of killing of A375 cells (HLA-A02+/MAGE-A4+) via PBMCs (LDH release) [15]: 5.52 nM | EC50 of killing of antigen peptide-pulsed T2 cells via PBMCs (LDH release) [16]: 0.00453 nM | EC50 of activation of Jurkat-Dual cells via antigen peptide-pulsed T2 cells (QUANTI-Luc) [17]: 0.175 nM

B4: TCRm x CD3 bispecific antibody 2N18D10+IMCR (bispecific antibody)
chain 1: EVQLVESGGGSVQTGETLRLSCTVSGFTFDDSDMGWYRQAPGNECELVSTITTDGSTYYADSVKGRFTISQDNAKTTAYLQMDSLKPEDTAVYYCAADLPILRPTPCGDSVLYNYWGQGTQVTVSSGGGGSGGGGSGGGGSEVQLVESGGGSVQTGETLRLSCTVSGFTFDDSDMGWYRQAPGNECELVSTITTDGSTYYADSVKGRFTISQDNAKTTAYLQMDSLKPEDTAVYYCAADLPILRPTPCGDSVLYNYWGQGTQVTVSSASERKSSVECPPCPAPEFEGGPSVFLFPPKPKDTLMISRTPEVTCVVVDVSQEDPEVQFNWYVDGVEVHNAKTKPREEQYNSTYRVVSVLTVLHQDWLNGKEYKCKVSNKALPASIEKTISKAKGQPREPQVCTLPPSQEEMTKNQVSLSCAVKGFYPSDIAVEWESNGQPENNYKTTPPVLDSDGSFFLVSKLTVDKSRWQEGNVFSCSVMHEALHNHYTQKSLSLSPGK
chain 2: not shown
EC50 of activation of Jurkat-Dual cells via HLA-A02+/MAGE-A4+ tumor cells A375 (QUANTI-Luc) [13]: 0.189 nM | Kd [14]: 0.388 nM | koff [14]: 7.61e-05 s⁻¹ | kon [14]: 196000 M⁻¹ s⁻¹ | EC50 of killing of A375 cells (HLA-A02+/MAGE-A4+) via PBMCs (LDH release) [15]: 0.0498 nM | EC50 of killing of antigen peptide-pulsed T2 cells via PBMCs (LDH release) [16]: 0.00236 nM | EC50 of activation of Jurkat-Dual cells via antigen peptide-pulsed T2 cells (QUANTI-Luc) [17]: 0.0145 nM

B5: TCRm x CD3 bispecific antibody 2N18D10-h16+IMCR (bispecific antibody)
chain 1: QVQLVESGGGLVKPGGSLRLSCAVSGFTFDDSDMGWYRQAPGNECELVSTITTDGSTYYADSVKGRFTISQDNAKTSAYLQMNSLRAEDTAVYYCAADLPILRPTPCGDSVLYNYWGQGTTVTVSSGGGGSGGGGSGGGGSQVQLVESGGGLVKPGGSLRLSCAVSGFTFDDSDMGWYRQAPGNECELVSTITTDGSTYYADSVKGRFTISQDNAKTSAYLQMNSLRAEDTAVYYCAADLPILRPTPCGDSVLYNYWGQGTTVTVSSASERKSSVECPPCPAPEFEGGPSVFLFPPKPKDTLMISRTPEVTCVVVDVSQEDPEVQFNWYVDGVEVHNAKTKPREEQYNSTYRVVSVLTVLHQDWLNGKEYKCKVSNKALPASIEKTISKAKGQPREPQVCTLPPSQEEMTKNQVSLSCAVKGFYPSDIAVEWESNGQPENNYKTTPPVLDSDGSFFLVSKLTVDKSRWQEGNVFSCSVMHEALHNHYTQKSLSLSPGK
chain 2: not shown
notes: also called 22N18D10-h16+IMCR
EC50 of activation of Jurkat-Dual cells via HLA-A02+/MAGE-A4+ tumor cells A375 (QUANTI-Luc) [13]: 0.145 nM | Kd [14]: 0.43 nM | koff [14]: 7.83e-05 s⁻¹ | kon [14]: 182000 M⁻¹ s⁻¹ | EC50 of killing of A375 cells (HLA-A02+/MAGE-A4+) via PBMCs (LDH release) [15]: 0.0761 nM | EC50 of killing of antigen peptide-pulsed T2 cells via PBMCs (LDH release) [16]: 0.00256 nM | EC50 of activation of Jurkat-Dual cells via antigen peptide-pulsed T2 cells (QUANTI-Luc) [17]: 0.0143 nM
